Molecular target: PABPC1 (residues 1-383) (Homo sapiens, UniProt P11940 P11940:1-383)
Experiment: FP; 50 mM HEPES, 5 mM EDTA, 250 mM KCl, 10 mM DTT, 0.5 mg/mL BSA, 0.05% Tween-20, yeast total RNA competitor
Settings: label: Cy3 or 3' biotin
Description: Equilibrium dissociation constants were determined by florescence anisotropy measurements of either unmodified adenosine 12 nucleotide RNA or the Poly(A) SPOT-ON to recombinant human PABPC1 (residues 1-383). Binding reactions were conducted in 50 μL of buffer containing 50 mM HEPES, 5 mM EDTA, 250 mM KCl, 10 mM DTT, 0.5 mg/mL BSA, 0.05% Tween-20, 0.1 mg/mL yeast competitor total RNA (Ambion), and 0.5 nM Cy3-labeled RNA. Measurements were recorded on a Tecan Spark multimode plate reader in triplicate. Data were fit using Kalidagraph as described⁶³

PABPC1 (residues 1-383), sequence (P11940 1-383, one chain of several): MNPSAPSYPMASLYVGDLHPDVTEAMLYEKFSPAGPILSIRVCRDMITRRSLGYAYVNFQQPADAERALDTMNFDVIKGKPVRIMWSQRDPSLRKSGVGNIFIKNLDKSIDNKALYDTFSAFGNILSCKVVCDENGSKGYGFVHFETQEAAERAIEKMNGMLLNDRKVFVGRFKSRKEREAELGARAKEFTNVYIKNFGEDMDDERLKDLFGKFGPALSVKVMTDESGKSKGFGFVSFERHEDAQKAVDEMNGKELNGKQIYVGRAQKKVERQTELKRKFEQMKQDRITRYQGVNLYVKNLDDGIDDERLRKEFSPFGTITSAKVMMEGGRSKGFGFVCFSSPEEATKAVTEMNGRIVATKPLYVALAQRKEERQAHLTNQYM

B1: Poly(A) SPOT-ON (ssRNA)
RNA: AAAAAAAAAAAA
modifications: 2'-OMe at all riboses; PS at the 5'-most and 3'-most linkages
- Kd: 301 nM

Reference: patent US20200087662, “INHIBITION OF POLY(A) BINDING PROTEIN AND THE TREATMENT OF PAIN” (Board of Regents, The University of Texas System, published 2020)
